IntAct's records for PubMed 26823173

B1: Coronin-1A (Mus musculus), O89053 (parent)
chain: MSRQVVRSSKFRHVFGQPAKADQCYEDVRVSQTTWDSGFCAVNPKFMALICEASGGGAFLVLPLGKTGRVDKNVPLVCGHTAPVLDIAWCPHNDNVIASGSEDCTVMVWEIPDGGLVLPLREPVITLEGHTKRVGIVAWHPTAQNVLLSAGCDNVILVWDVGTGAAVLTLGPDVHPDTIYSVDWSRDGALICTSCRDKRVRVIEPRKGTVVAEKDRPHEGTRPVHAVFVSEGKILTTGFSRMSERQVALWDTKHLEEPLSLQELDTSSGVLLPFFDPDTNIVYLCGKGDSSIRYFEITSEAPFLHYLSMFSSKESQRGMGYMPKRGLEVNKCEIARFYKLHERKCEPIAMTVPRKSDLFQEDLYPPTAGPDPALTAEEWLGGRDAGPLLISLKDGYVPPKSRELRVNRGLDSARRRATPEPSGTPSSDTVSRLEEDVRNLNAIVQKLQERLDRLEETVQAK

Variants of: B1
Settings: with gnas2_human GNAS

Variant | effect of a mutation on the interaction
T424A | decreasing interaction
T418A | decreasing interaction
T418A;T424A | disrupting interaction

Variants of: B1
Settings: with gnas2_human GNAS
Remark: another data set of the same source

Variant | effect of a mutation on the interaction
T418E;T424E | disrupting interaction
